Experimental data published in US20230012273A1.

Tests used:
[1] = biological target: ED-tagged human SIRPα V2 receptor on Jurkat signaling reporter cells (human) (UniProt P78324); experiment: cell-based or functional assay
[2] = biological target: ED-tagged human SIRPα V1 receptor on Jurkat signaling reporter cells (human) (UniProt P78324); experiment: cell-based or functional assay
Sequence of ED-tagged human SIRPα V1 receptor on Jurkat signaling reporter cells (human) (P78324 31-504): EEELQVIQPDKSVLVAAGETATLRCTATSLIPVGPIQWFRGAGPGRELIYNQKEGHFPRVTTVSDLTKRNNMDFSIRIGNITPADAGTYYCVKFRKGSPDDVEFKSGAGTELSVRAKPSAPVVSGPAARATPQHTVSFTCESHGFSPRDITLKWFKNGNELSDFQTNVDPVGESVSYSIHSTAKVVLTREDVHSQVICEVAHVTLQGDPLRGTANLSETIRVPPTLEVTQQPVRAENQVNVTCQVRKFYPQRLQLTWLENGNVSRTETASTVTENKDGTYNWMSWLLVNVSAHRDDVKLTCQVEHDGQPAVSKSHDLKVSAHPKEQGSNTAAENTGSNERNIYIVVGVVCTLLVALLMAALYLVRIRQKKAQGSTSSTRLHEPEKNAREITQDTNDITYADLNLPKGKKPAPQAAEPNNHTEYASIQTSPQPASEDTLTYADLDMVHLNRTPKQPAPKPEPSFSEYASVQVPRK

Sequence of Anti-SIRPα antibody KWAR23 (VH): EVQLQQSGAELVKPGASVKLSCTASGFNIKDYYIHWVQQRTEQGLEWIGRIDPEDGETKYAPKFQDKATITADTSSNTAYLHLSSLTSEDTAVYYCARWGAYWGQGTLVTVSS
Sequence of Anti-SIRPα antibody KWAR23 (VL): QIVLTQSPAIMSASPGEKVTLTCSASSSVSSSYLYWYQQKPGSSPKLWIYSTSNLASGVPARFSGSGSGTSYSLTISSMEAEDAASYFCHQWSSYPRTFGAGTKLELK
Sequence of ED-tagged human SIRPα V2 receptor on Jurkat signaling reporter cells (human) (P78324 31-504): as the sequence (P78324 31-504) above

Anti-SIRPα antibody KWAR23
Blockade of Cellular CD47-Mediated SIRPα Signaling; IC50 [1]: 0.04 nM
Blockade of Cellular CD47-Mediated SIRPα Signaling; IC50 [2]: 0.04 nM
